# Data: paper PMC11282289, “Serial X-ray liquidography: multi-dimensional assay framework for exploring biomolecular structural dynamics with microgram quantities” (Nature Communications, 2024)
# B1: Arabidopsis thaliana UV-B resistance 8 (AtUVR8), wild type, residues 12-381 (domain or fragment, UniProt Q9FN03 12-381, looked up)
# chain: APPRKVLIISAGASHSVALLSGDIVCSWGRGEDGQLGHGDAEDRPSPTQLSALDGHQIVSVTCGADHTVAYSQSGMEVYSWGWGDFGRLGHGNSSDLFTPLPIKALHGIRIKQIACGDSHCLAVTMEGEVQSWGRNQNGQLGLGDTEDSLVPQKIQAFEGIRIKMVAAGAEHTAAVTEDGDLYGWGWGRYGNLGLGDRTDRLVPERVTSTGGEKMSMVACGWRHTISVSYSGALYTYGWSKYGQLGHGDLEDHLIPHKLEALSNSFISQISGGWRHTMALTSDGKLYGWGWNKFGQVGVGNNLDQCSPVQVRFPDDQKVVQVSCGWRHTLAVTERNNVFAWGRGTNGQLGIGESVDRNFPKIIEALSVDG
# notes: UV-B resistance 8 (UVR8), Arabidopsis thaliana, residues 12-381; Homodimer in the dark (ground) state; also called 2M-T-AtUVR8-His; source: E. coli BL21(DE3) GOLD, purified (IMAC, TEV cleavage, Q-Sepharose, MBPTrap flow-through); not shown: MBP-His-tag, N-terminal, cleaved
# Biological target: the molecule itself
# Assay: static small angle X-ray scattering (SAXS); conventional static SAXS, flow cell, no laser (ground state); difference scattering between wild type and monomeric mutant; 25 mM Tris pH 7.5, 100 mM NaCl, 2 mM DTT
protein,measurement,value
B1,binding result,binds
